According to US20250340608A1 (PROTAGONIST THERAPEUTICS, published 2025):
Numbered stars: 1 amine (or outer) side, 2 acyl side, 3 side chain; on linkers, the order of the positions; unused ones are H or OH. Bridge positions count the residues as written; N and C are the ends. Square brackets hold non-standard residues; d marks the D form. Ends that are not written are not given here. * marks the point of attachment. Ida = iminodiacetic acid, O=C(CN(CC(=O)[*:3])[*:1])[*:2]; Myristoyl = CCCCCCCCCCCCCC(=O)*; β3hP = O=C(O)C[C@@H]1CCCN1; Isovaleryl = CC(C)CC(=O)*; Octanoyl = CCCCCCCC(=O)*; Albu = not defined here

T1: human ferroportin (SLC40A1) fused in frame with GFP, stably expressed in HEK293 cells (human, UniProt Q9NP59 1-571)
T1 sequence (looked up): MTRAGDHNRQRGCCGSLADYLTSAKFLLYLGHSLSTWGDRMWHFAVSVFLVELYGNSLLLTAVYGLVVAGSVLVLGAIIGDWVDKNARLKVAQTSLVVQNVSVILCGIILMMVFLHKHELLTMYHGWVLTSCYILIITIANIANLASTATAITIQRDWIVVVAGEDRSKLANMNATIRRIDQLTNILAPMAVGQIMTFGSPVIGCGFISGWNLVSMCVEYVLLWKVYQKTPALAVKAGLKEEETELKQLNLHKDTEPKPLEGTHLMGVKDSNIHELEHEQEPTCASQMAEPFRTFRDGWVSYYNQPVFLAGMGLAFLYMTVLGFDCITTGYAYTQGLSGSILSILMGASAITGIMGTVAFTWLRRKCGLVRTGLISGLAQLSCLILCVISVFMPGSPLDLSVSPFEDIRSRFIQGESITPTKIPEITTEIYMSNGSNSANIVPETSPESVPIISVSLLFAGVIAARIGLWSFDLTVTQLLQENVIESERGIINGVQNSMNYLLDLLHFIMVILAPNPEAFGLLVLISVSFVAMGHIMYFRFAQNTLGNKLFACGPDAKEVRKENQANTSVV

B1: Compound 357 (peptide)
peptide: Isovaleryl-DTHFPCIKKEPHSKECK-NH2
modifications: not fully specified (bridges); cysteine pairing not given here
B2: Compound 299 (peptide)
peptide: H-LTHFPCIIF-NH2
B3: Compound 280 (peptide)
peptide: H-DTHFACIIF-NH2
B4: Compound 278 (peptide)
peptide: H-DTHFPCIIA-NH2
B5: Compound 309 (peptide)
peptide: H-DTHFPCILK-NH2
B6: Compound 250 (peptide)
peptide: DTHFPCIKFKPRSKGWVC
modifications: N-terminal isovaleric acid; K10(octanoic acid); C-terminal NH2
B7: Compound 254 (peptide)
peptide: [Ida]THFPCIKFEPRSKGWVCK(Myristoyl)-NH2
modifications: disulfide 6-18 (inferred)
B8: Compound 267 (peptide)
peptide: Isovaleryl-DTAFPCIKFEPRSKEC-NH2
modifications: disulfide 6-16 (inferred)
B9: Compound 283 (peptide)
peptide: H-DTAFPCIIF-NH2
B10: Compound 358 (peptide)
peptide: DTHFPCIKFKPHSKECK
modifications: not fully specified; N-terminal isovaleric acid; K10(isoglu-Palm); C-terminal NH2
B11: Compound 297 (peptide)
peptide: H-DTHFPCIKFF-NH2
B12: Compound 248 (peptide)
peptide: DTHFPCIKFKPRSKGWVC
modifications: N-terminal isovaleric acid; K10(lauric acid); C-terminal NH2
B13: Compound 284 (peptide)
peptide: H-ATHFPCIIF-NH2
B14: Compound 302 (peptide)
peptide: H-DTKFPCIIF-NH2
B15: Compound 300 (peptide)
peptide: H-ETHFPCIIF-NH2
B16: Compound 304 (peptide)
peptide: H-DTHFPCIIK-NH2
B17: Compound 285 (peptide)
peptide: [Ida]THF[β3hP]CIIF-NH2
B18: Compound 261 (peptide)
peptide: Isovaleryl-HFPCIKFEPRSKGWVCK(Octanoyl)-NH2
modifications: disulfide 4-16 (inferred)
B19: Compound 279 (peptide)
peptide: H-DTHFPCAIF-NH2
B20: Compound 265 (peptide)
peptide: Isovaleryl-DTHFPCIKFEPHSK(Albu)GCK-NH2
modifications: disulfide 6-16 (inferred); reading uncertain
B21: Compound 287 (peptide)
peptide: H-DTHFPCIEF-NH2
B22: Compound 293 (peptide)
peptide: H-DTHFPCIF-NH2
B23: Compound 291 (peptide)
peptide: Isovaleryl-DTHFPCIKF-NH2
SMILES: CC[C@H](C)[C@H](NC(=O)[C@H](CS)NC(=O)[C@@H]1CCCN1C(=O)[C@H](Cc1ccccc1)NC(=O)[C@H](Cc1c[nH]cn1)NC(=O)[C@@H](NC(=O)[C@H](CC(=O)O)NC(=O)CC(C)C)[C@@H](C)O)C(=O)N[C@@H](CCCCN)C(=O)N[C@@H](Cc1ccccc1)C(N)=O
B24: Compound 305 (peptide)
peptide: H-DTHFPCIIR-NH2
B25: Compound 308 (peptide)
peptide: H-DTHFPCILF-NH2
B26: Compound 310 (peptide)
peptide: H-DTHFPCIEK-NH2
B27: Compound 307 (peptide)
peptide: H-DTHFPCIVF-NH2
B28: Compound 10 (peptide)
peptide: Isovaleryl-DTHFPCIQFGPRSKGWVCK-NH2
modifications: not fully specified (bridges); cysteine pairing not given here
B29: Compound 115 (peptide)
peptide: Isovaleryl-DTHFPCIIFGPRSKGCK-NH2
modifications: not fully specified (bridges); cysteine pairing not given here
B30: Compound 9 (peptide)
peptide: Isovaleryl-DTHFPCIKFGPRSKGWVCK-NH2
modifications: not fully specified (bridges); cysteine pairing not given here
B31: Compound 105 (peptide)
peptide: Isovaleryl-DTHFPCIIFEPRSKGWVCK-NH2
modifications: not fully specified (bridges); cysteine pairing not given here
B32: Compound 322 (peptide)
peptide: H-DTHFPCILK-NH2
modifications: also: homodimer via disulfide between Cys6 of each monomer
B33: Compound 288 (peptide)
peptide: Isovaleryl-DTHFPCIIF-NH2
SMILES: CC[C@H](C)[C@H](NC(=O)[C@H](CS)NC(=O)[C@@H]1CCCN1C(=O)[C@H](Cc1ccccc1)NC(=O)[C@H](Cc1c[nH]cn1)NC(=O)[C@@H](NC(=O)[C@H](CC(=O)O)NC(=O)CC(C)C)[C@@H](C)O)C(=O)N[C@H](C(=O)N[C@@H](Cc1ccccc1)C(N)=O)[C@@H](C)CC
B34: Compound 318 (peptide)
peptide: H-DTHFPCIIK-NH2
modifications: also: homodimer via disulfide between Cys6 of each monomer
B35: Compound 317 (peptide)
peptide: H-DTKFPCIIF-NH2
modifications: also: homodimer via disulfide between Cys6 of each monomer
B36: Compound 323 (peptide)
peptide: H-DTHFPCIEK-NH2
modifications: also: homodimer via disulfide between Cys6 of each monomer
B37: Compound 319 (peptide)
peptide: H-DTHFPCIIR-NH2
modifications: also: homodimer via disulfide between Cys6 of each monomer
B38: Compound 325 (peptide)
peptide: Isovaleryl-DTHFPCIIF-NH2
modifications: also: homodimer via disulfide between Cys6 of each monomer
B39: Compound 312 (peptide)
peptide: H-DTHFPCIF-NH2
modifications: also: homodimer via disulfide between Cys6 of each monomer
B40: Compound 314 (peptide)
peptide: H-DTHFPCIKFF-NH2
modifications: also: homodimer via disulfide between Cys6 of each monomer

target: T1, human ferroportin (SLC40A1) fused in …; assay: cell-based or functional assay

Row | Binder | Potency EC50 (nM) | Potency: % (activity) at 1 µM [%] | Potency EC50 [nM]
1 | B1 | > 1000 |  | 
2 | B2 |  | 64 | 
3 | B3 | > 1000 |  | 
4 | B4 | > 1000 |  | 
5 | B5 |  | 55 | 
6 | B6 |  |  | 30
7 | B7 |  |  | 20
8 | B8 | > 1000 |  | 
9 | B9 |  |  | 739
10 | B10 |  |  | 6
11 | B11 |  | 64 | 
12 | B12 |  |  | 10
13 | B13 | > 1000 |  | 
14 | B14 |  | 60 | 
15 | B15 |  | 77 | 
16 | B16 |  | 55 | 
17 | B17 | > 1000 |  | 
18 | B18 |  |  | > 300
19 | B19 | > 1000 |  | 
20 | B20 |  |  | 6
21 | B21 | > 1000 |  | 
22 | B22 |  | 52 | 
23 | B23 |  |  | 7
24 | B24 |  | 62 | 
25 | B25 |  | 89 | 
26 | B26 |  | 0 | 
27 | B27 |  | 75 | 

target: T1, human ferroportin (SLC40A1) fused in …; assay: cell-based or functional assay; remark: another data set of the same source

Row | Binder | In Vitro Activity EC50 [nM]
28 | B28 | 35
29 | B29 | 21
30 | B30 | 32
31 | B31 | 10

target: T1, human ferroportin (SLC40A1) fused in …; assay: cell-based or functional assay; remark: another data set of the same source

Row | Binder | EC50 (nM) (n = 3) | % Activity At 1 uM [%]
32 | B5 | > 300 | 
33 | B32 | > 300 | 
34 | B11 | > 300 | 
35 | B33 |  | 100
36 | B34 | > 300 | 
37 | B14 | > 1000 | 
38 | B16 | > 1000 | 
39 | B35 | 137 | 
40 | B36 | > 1000 | 0
41 | B37 | 268 | 
42 | B38 |  | 100
43 | B39 | > 300 | 
44 | B22 | > 1000 | 
45 | B23 | 7 | 100
46 | B24 | > 1000 | 
47 | B26 | > 1000 | 0
48 | B40 | 130 | 
